This is an account of results in patent US20040038398A1.

Experiment [1] deals with CD2 antigen on human peripheral blood CD14+ myeloid cells / primary dendritic cells (and CD3+ T cells) (human) (UniProt P06729). Nature of the experiment: cell-based or functional assay.
Experiment [2] has the same target. Nature of the experiment: flow cytometry, staining of enriched human CD14+ myeloid cells. For orientation: A flow cytometer gives signals particle by particle.
Experiment [3] shares this target. Nature of the experiment: flow cytometry, anti-T113 staining after 30 min pre-incubation with anti-T112, 4 C, Mg++/Ca++-free medium.

Sequence of UniProt P06729 (P06729 25-351): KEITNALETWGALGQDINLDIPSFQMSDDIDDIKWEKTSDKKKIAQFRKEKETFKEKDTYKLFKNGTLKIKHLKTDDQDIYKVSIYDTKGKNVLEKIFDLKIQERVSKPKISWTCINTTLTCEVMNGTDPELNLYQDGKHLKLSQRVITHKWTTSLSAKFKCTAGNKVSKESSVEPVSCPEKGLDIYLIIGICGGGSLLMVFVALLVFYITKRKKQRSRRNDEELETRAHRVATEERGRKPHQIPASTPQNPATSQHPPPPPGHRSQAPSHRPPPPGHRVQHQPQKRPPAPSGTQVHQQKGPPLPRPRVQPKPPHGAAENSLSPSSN

With “CD58 expressed on transfected CHO cells (CHO-58) (from UniProt P19256 29-250) (ligand)”, in experiment [1], the IL-1β in DC/CHO-58 cocultures compared with DC/CHO-NEO amounted to 2 fold, the IL-12 in DC/CHO-58 cocultures compared with DC/CHO-NEO came to 26 fold and the level of HLA-DR on primary dendritic cells cocultured with CHO-58 is > 2.5 fold.

Take anti-T111 monoclonal antibody: in experiment [1], the IL-1β release, monocyte-derived dendritic cells against primary dendritic cells is 75 fold; the IL-12 release, monocyte-derived dendritic cells against primary dendritic cells was determined as 100 fold; the allogeneic naive CD4 T cell proliferation induced by antibody-pulsed primary dendritic cells ([3H]thymidine) was 2.5 fold. In addition, the percent of CD14+ Mx on which CD2 was identified in experiment [2] was found to be 30%.

As to anti-T112 monoclonal antibody, in experiment [2], the percent of CD14+ Mx on which CD2 was identified amounted to 37%.

anti-T113 monoclonal antibody: in experiment [1], the CD50 MFI of primary dendritic cells, after CD2 engagement turned out to be 90 MFI; the CD50 MFI of primary dendritic cells, control was 148 MFI; the HLA-DQ level on primary dendritic cells (anti-T113 added to anti-T112-enriched cells) amounted to 9 fold; the HLA-DR level on primary dendritic cells (anti-T113 added to anti-T112-enriched cells) worked out at 2 fold. For the same substance, in experiment [1], the MFI of CD50^hi (so in the source) primary dendritic cells was 53%; the [Ca++]i in CD3+ T cells above baseline (anti-T112 and anti-T113 cross-linked with goat anti-mouse IgG) was determined as 180%; the high expressing CD86 population of primary dendritic cells (anti-T112/3 pair) is 65%; the increase in [Ca++]i in CD14+ Mx (anti-T113 added after anti-T112) is 69%. In experiment [1], this substance returned an increase in [Ca++]i in CD14+ Mx above baseline (anti-T112 and anti-T113 cross-linked with goat anti-mouse IgG) of 95%; a level of CD40 on primary dendritic cells (anti-T112/3 pair) of 2 fold; a level of CD54 on primary dendritic cells (baseline 14%) of 9 fold; a level of CD80 on primary dendritic cells (anti-T112/3 pair) of 3 fold. Besides, in experiment [1], the levels of HLA-DR and HLA-DQ on primary dendritic cells (anti-T112/3 pair against control) lay in the range of 2 to 3 fold; the percent CD50^hi of primary dendritic cells, after CD2 engagement came to 76%; the percent CD50^hi of primary dendritic cells, control came out at 96%; the percentage of CD50^hi (so in the source) of primary dendritic cells was 21%. Moreover, the percent of CD14+ Mx that were CD2+ in experiment [3] is 20%.
